Values of other authors in publication PMC1074345.

Biological target: Angiotensin II AngII (Homo sapiens) (UniProt P01019)
Assay: radioligand

UniProt P01019, sequence (P01019 whole entry, looked up): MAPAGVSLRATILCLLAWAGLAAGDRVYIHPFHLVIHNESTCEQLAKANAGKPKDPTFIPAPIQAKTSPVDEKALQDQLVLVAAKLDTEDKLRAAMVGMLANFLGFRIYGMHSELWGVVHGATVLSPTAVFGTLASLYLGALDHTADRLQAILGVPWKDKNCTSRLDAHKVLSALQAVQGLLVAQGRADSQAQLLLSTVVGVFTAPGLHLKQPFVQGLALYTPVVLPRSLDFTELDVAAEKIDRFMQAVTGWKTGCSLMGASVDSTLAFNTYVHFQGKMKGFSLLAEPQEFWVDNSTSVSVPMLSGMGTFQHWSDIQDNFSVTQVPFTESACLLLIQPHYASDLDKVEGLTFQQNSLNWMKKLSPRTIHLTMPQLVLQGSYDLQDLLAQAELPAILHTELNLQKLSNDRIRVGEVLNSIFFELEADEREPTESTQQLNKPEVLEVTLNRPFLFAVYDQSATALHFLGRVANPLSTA

| Kd | Substance |
| --- | --- |
| 0.36 nM | AT1 receptor (from UniProt P30556) |
| 0.17 nM | AT2 receptor (from UniProt P50052) |
